# Results as given in publication PMC9918506, “Structural insights into pathogenic mechanism of hypohidrotic ectodermal dysplasia caused by ectodysplasin A variants” (Nature Communications, 2023).
# B1: EDA·A1 TNF homology domain (EDA·A1THD, residues 233–391), wild type [human] / EDAR cysteine-rich domains (EDAR_(CRDS), residues 30–150), MBP tag removed [human] (parent)
# chain 1: GPSGAADKAGTRENQPAVVHLQGQGSAIQVKNDLSGGVLNDWSRITMNPKVFKLHPRSGELEVLVDGTYFIYSQVEVYYINFTDFASYEVVVDEKPFLQCTRSIETGKTNYNTCYTAGVCLLKARQKIAVKMVHADISINMSKHTTFFGAIRLGEAPAS
# chain 2: GGSGGSGGSGGSNCGENEYYNQTTGLCQECPPCGPGEEPYLSCGYGTKDEDYGCVPCPAEKFSKGGYQICRRHKDCEGFFRATVLTPGDMENDAECGPCLPGYYMLENRPRNIYGMVCYSCLLAPPNTKECVG
# Variants of: B1
# Assay: SPR
# Settings: with EDAR cysteine-rich domains (EDAR_(CRDS), residues 30–150), 50, 25, 12.5, 6.25, 3.125 nM
row,Kd [µM],Variant
1,0.0359,chain 1 R44C
